Test: yeast display, Sf9 membrane polyspecificity reagent, FACS + sequencing; frameworks hold sequencing errors
Outline: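 Galactose induction of a Saccharomyces cerevisiae BJ5465 synthetic nanobody display library ran 36–48 hours. The cells were then stained for 1 hour at 4 °C with 10% biotinylated, detergent-solubilized Sf9 membrane reagent, pulled down on streptavidin microbeads and FACS-sorted into low and high (top ~1%) gates on expression and reagent-binding fluorescence. Labels for polyreactivity follow the gate of origin.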

Row | Sequence | polyreactivity (PSR sort gate)
1 | QVQLVESGGGLVQAGGSLRLSCAASGIIFERNAMGWYRQAPGKERELVAAITTSGDSTYYADSVKGRFTISRDNAKNTVYLQMNSLKPEDTAVYYCAVEGVIWSFWPYEYWGQGTQVTVSS | high polyreactivity
2 | QDQLVESGGGLVQAGGSLRLSCAASGLTFYQYDMGWYRQAPGKERELVAAISRSGGRTYYADSVKGRFTISRDIAMITVYLQMNSLKPEDTAVYYCARPDKRLEYSENYYWGQGSQVTVSS | high polyreactivity
3 | QVQLVESGGGLVQAGGSLRLSCAASGFIGWYRQAPGKERELVAAISWRGGRTYYADSVKGRFTISRDNAKNTVYLQMNSLKPEDTAVYYCNAVGNVWGYDSWGQGTQVTVSS | high polyreactivity
4 | QVQLVESGGGLVQAGGSLRLSCAASGRTFWSYAMGWYRQAPGKERELVAAIRTSDGITYYADSVKGRFTISRDNAKNTVYLQMNSLKPEDTAVYYCARDIRQYILYGRGDYWGQGTQVTVSS | low polyreactivity
5 | QVQLVESGGGLVQAGGSLRLSCAASGSTFGFNAMGWYRPAPGKEREFVAAINTSGGNTYYADSVKGRFTISRDNAKNTVYLQMNSLKPEDTAVYYCNAREGHLYGYPYGYWGQGTQVTVSS | low polyreactivity
6 | QVQLVESGGGLVQAGGSLRLSCAASGSIFRVYAMGWYRQAPGKERELVAAITRGGSTYADSVKGRFTISRDNAKNTVYLQMNSLKPEDTAVYYCAARVSYWGQGTQVTVSS | high polyreactivity
7 | QVQLVESGGGLVQAGGSLRLSCAASGFTFYRYAMGWYRQAPGKERELVAAITRSGSRSYYADSVKGRFTISRDNAKNTVYLQMNSLKPEDTAVYSCNGPRPASTDRRRYNYCGQGTQVTVSS | high polyreactivity
8 | QVQLVESGGGLVQAGGSLRLSCAASGNTFYRYAMGGYRQSPGKERELVAAITWSGSRTYYADSVKGRFTISRDNAKYTVYLQMNRLKPEDTAVYYCAAPFWYVGPAMDYWGQGTQVTVSS | low polyreactivity
9 | QVQLVESGGGLVQAGGSLRLSCAASGFTFRIYAMGWYRQAPGKERELVAAITWSGGSTSYADSVKGRFTISRDNAKNTVYLQMNSLKPEDTAVYYCAAETKYSGAYPYDYWGQGTQVTVSS | high polyreactivity
10 | QVQLVESGGGLVQAGGSLRLSCAASGRIFYSYAMGWYIPAPGKERELVAAITVSGGSTFYADSVKGRFTISRDNAKNTVYLQMNSLKPEDTAVYYCAAQSTTIEDGWYVEYNYWGQGTQVTVSS | high polyreactivity
11 | QLQLVESGGGLVQAGGSLRLSCAASGRTFSYNTMGWYRHAPGKERELVAAISWSGGSTYYADSVKGRFTISRDNAKNTVYLQMNSLKPEDSAVYYCNARSSGKGRSNAYYKGHGYWGQGTQVTVSS | high polyreactivity
12 | QVKLVESGGGLVQAGGSISLTCAASGSIFYKYVMGWYRQAPGKERELVAAISRGGGSTYYADSVKGRFTISRDNAKNTVYLQMNSLKPEDTAVYYCYAVGRPRYGHGFDHWGQGTQVTVSS | high polyreactivity
13 | QVQLVESGGGLVQAGGSLRLSCAASGITFWQNTMGWYRQAPGKERELVAAISWTGGRTYYADSVKGRFTISRDNAKNTVYLQMNSLKPEDTAVYYCNTGHEEDEDDYWGQGTQVTVSS | low polyreactivity
14 | QVQLVESGGGLVQAGGSLRLSCAASGNIFQGNAMGWYRQAPGKERELVAAITSDGSTYADSVKGRFTISRDNAKNTVYLQLNSLKPEDTAVYYCNADGITSLPVPALDYWGQGTQATVSS | low polyreactivity
15 | QVQLVESGGGLDQAGGSHRLSCAASGSTFYPYAMRWYRQAPGKERELVAGITVIDGSTYYADSVKGRFTMSRDNAKNPVYFQMNSLKPEDTAVYYCAVDGPNQVQEYGYWGQGTQVTVSS | low polyreactivity
16 | QFQLVESGGGLVQAGGSLRLSCAASGFTFTVYAMGWYRQAPGKERELVAAITRGTSTYADSVKGRFTISRDNAKNTVYLQMNSLKPEDTAVYYCAARSSPWYTRYRSSELFDYWGQGTQVTVSS | high polyreactivity
17 | QVQLVESGGGLVQAGGSLRLSCAASGGTFYYNTMGWYRQAPGQERELVAAIRSTGGSTYDADSVKGRFTISRDNAKNTVYLQMNSLKPEDTAVYYCAKKVYTRRRGSDYWGQGTQVTVSS | high polyreactivity
18 | QVQIEESGGGLVQAGGSLRLSCAASASIFYPNAMGWYRQAPVKEREFVAAITRNGDSTYYADSVKGRFTISRDNAKNTVYLQMNSLKPEDTAVYYCNTDGQGIYSYNKDLSWISGYDYWGQGTQVTVSS | low polyreactivity
19 | QVQLVESGGGLVKAGVSLRLICAASGSTFDGNDMGWYRQAHGKERELVATINSDDSKNYADSVKGRFTISRDNAKNTVYLQMNSLKPEDTAVYYCAARLYVTPILSYVERYTNDYWGQGTQVTVSS | low polyreactivity
20 | QVQLVESGGGLVQAGGSLRLSCAASGSIFVGNAMGWYRQAPGKERELVAGISKSGSRTYYADSVKGRFTISRDNAKNTVYVQMNSLKPEDTSVYYCAAGKVAYYTLDYYWGQGTQVTVSS | high polyreactivity
21 | QFQLLESGGGLVQAGGSLRLSCADSGSIYLYYARGWYRQAPGKESELVAAITYSGVSTYDAVSVKGRFTISRDTSNNTVYLQMNSLKPEDNAFYDCARRWNAFGSKGVYWGQGTQVTVSS | high polyreactivity
22 | QVQLQESGDGLVQAVGSLRLSCAASGYISGYYYMGWYRQAPGKERELVAGIDAFGSSTNYADCVKGRFTISRDNAKNTVYLQMNSLKPEDTAVYYCAARPDGYRLFSYWGQGTQVTVSS | low polyreactivity

Row | Sequence | polyreactivity (PSR sort gate)
23 | QVQLVESGGGLVQAGGSLRLRCAASGGIFSIYAMGWYRQAPGKERELVAAISTSGGSTYYADSVKARFTISRDNAKNTVYLQMNSLKPEDTAVYYCNARSQQWWLSRYNYWGQGTQVTVSS | high polyreactivity
24 | QVQLVESGGGLVQAGGSLRLSCAASGSIFVYYTMGWYRQAPGKERELVAAISISGTSTYYADSVKGRFTISRDNAKNTVYLQMNSLKPEDTAVYYCAADTYYGEDYWGQGTQVTVSS | low polyreactivity
25 | QVQLVESGGGLLQAGGSLSLSCAASGGTFRYYTMGWYRQAPGKERELVASISGGGRTYYADSVKGRFTISRDNAKNTVYLQMNSLKPEDTAVYYCATYTRTFGYWGYGYWGQGTQVTVSS | high polyreactivity
26 | QVQLVESGGGLVQAGGSLRLSCAASGRTLFGYAMGWYRQAPGKERELVAAITYGATSTYADSVKGRFTISRDNAKNTVYLQMNSLKPEDTAVYYCNAYTPTDGFDYWGQGTQVTVSS | low polyreactivity
27 | QVQLVESGGGLVQAGGSLRLSCAASGYIFNYAIGWYRQAPRKESELVAAITWDGSSTNYADSVKGRFTISRDNAKNTVYLQMKSLKPEDTAVYYCNARGRWTFNGFWFTYNYWGQGTQVTVSS | high polyreactivity
28 | QVQLVESGGGLVQAGGSLRLSCAASGSIFHWYAMGWYRQAPGKERELVAAISWSGGSTYYADSVKGRFTISRDNAKNTVYLQRNSLKPEDTAVYYCNKYIRYPFKRYGYWGQGTQVTVSS | high polyreactivity
29 | QVQLVESGGGLVQAGGSLRLTCAASGSTFQHYAMGWYRQAPGKEMELVAAITNTGGSTYYADSVKGRFTISRDNAKNTVYLQMNSLKPEDNAVYYCATVARRYGYPGYYWGQGTQVTVSS | low polyreactivity
30 | QVQLVESGGGLVQAGGSLRLSCAASGRIFYFNAMGWYRQAPGKERELVAAISGSGGDTYYADSVKGRFTISRDNAKNTVYLQMNSLNPEDTAVYYCAAEVYTWGQGTQVTVSS | low polyreactivity
31 | QVQLEESGGGLDQAGGSLRLSCAASARTFDGYAMGWYRQAPGKERELVAAISSGDSTYYADSVKGRFTISRDKAKNTVYLQMNSLKPEDTAVYYCAASFYYSSYGYWGQGTQVTVSS | low polyreactivity
32 | QVQLVESGGGLVQAGGSLRLSCAASGLIFTVNAMGWYRQAPGKDRELVAAISGGDSTNYADSVKGRFTISRDNAKNTVYLQMNSLKPEDTAVYYCAVRGRAQYTSRRYGYWGQGTQVTVSS | high polyreactivity
33 | QVQLVESGGGLVQAGGSLRLSCAASGRIFDSYAMGWYRQAPGKERELVAVISNNDGTTYYADSVKGRFTISRDNAKKTFYLQMNSLKPEDTAVYYCAAEEPLFGYLWYVVTYAGFYDYWGQGTQVTVSS | low polyreactivity
34 | QVQLVESGGGLVQAGGSLRLSCAASGRIFVHYAMGWYRQAPGKERELVAAISRSGGSTYYADSVKGRFTISRDTAKNTVYLQMNSLKPEDTAVYYCNTYPLSQFGPYWSGYDYWGQGTQVTVSS | high polyreactivity
35 | QVQLVESGGGLVQAGGSHRLSCAASGFILAYYAMGWYRQAPGKERELVASINRSGGSTYYADSVKGRFTISRDNAKNTVYFQMNSLKPEDTAVHYCAHTNRGDGQWWYRYYYWGQGTQVTVSS | high polyreactivity
36 | QVQLVESGGGLVQAGGSLRLSCAASGFTFYSYAMGWYRQSPGKERELVAAISWSGTRTYYADSVKGRFTISRDTAKNTVYLQMNSLKPEDTAVYYCAARGYRYGYGYWGQGTQVTVSS | high polyreactivity
37 | QVQLVESGGGLVQAGGSLRLSCAASGSIFISYAMGWYRQAPGKERELVAAINSGGSTNYADSVKGRFTISRDNAKNTVYLQMNSLKPEDTAVYYCAVDGYFFQGPYYYWGQGTQVTVSS | low polyreactivity
38 | QVQLVESGGGLVQAGGSLRLSCAASGFIFYHNAMGWYRQAPGKERELVAAISSTGGSTHYADSVKGRFTISRDNAKNTVYLQMNSLKPEDTAVYYCNADPRRRWYDYWGQGTQVTVSS | high polyreactivity
39 | QVQHVESGGGLVQAGGSLRLICAASGITFHYYAMGWYRQAPGKDRELVAAISSGGRTNYADSVKGRFTISRDNAKNTVYLQMNCLKPEDTAVYYCAGVYFGGYTATVYYWGQGTQVTVSS | high polyreactivity
40 | QVQLVESGGGLVQAGGSLRLSCAASGRTFGYYAMGWYRQAPGKERELVAAITLSGGSTYYADSVKGRFTISRDNAKNTVYLQMNSLKPEDTAVYYCAAKWWHFYPYDYWGQGTQVTVSS | high polyreactivity
41 | QVQLLESGGGLVQAGGSLRLSCAASGLIFWGYAMGWYRQAPGKERELVAAINATGGRTYYADSVKGRFTISRDNAKNTVYLQMNSLKPEDTAVYYCAAYSGFYDSYDYWGQGTQVTVSS | low polyreactivity
42 | QLQLVESGGGLVQAGGSLRLICAASGRIFATYAMGWYRQAPGKEREFVAAITKGGVRTYYADSVKGRFTISRDNAKNTVYLQMNSLKPEDTAVYYCAADAWVRGRYPYGYDYWGQGTQVTVSS | low polyreactivity
43 | QVQLVESGGGLVQAGGSLRLSCAASGFTFYQYAMGWSRPAPGKERELVAGISRGGRTYYADSVKGRFTISRDNANNTVYLQMNSLKPEDTAVYYCAARYFYYKNVYAYRTYYYWGQGTQVTVSS | high polyreactivity
